The values that follow come from the supplement of paper PMC10266784.

B1: library; numbered along this chain (parent)
chain: MAAAAAAAAEQQSSNGPVKKSMREKAVERRSVNKEHNSNFKAGYIPIDEDRLHKTGLRGRKGNLAICVIILLFILAVINLIITLVIWAVIRIGPNGCDSMEFHESGLLRFKQVSDMGVIHPLYKSTVGGRRNENLVITGNNQPIVFQQGTTKLSVENNKTSITSDIGMQFFDPRTQNILFSTDYETHEFHLPSGVKSLNVQKASTERITSNATSDLNIKVDGRAIVRGNEGVFIMGKTIEFHMGGNMELKAENSIILNGSVMVSTTRLPSSSSGDQLGSGDWVRYKLCMCADGTLFKVQVTSQNMGCQISDNPCGNTH

Variants of B1 are the subject of this data set. In words: SGCB cell-surface expression functional score (HA stain, bin4 vs bin1, normalised to synonymous) (log10 ratio); higher = more cell-surface SGCB (functional). Summed up: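 Codon-saturation libraries of HA-tagged, YFP-fused human beta-sarcoglycan were lentivirally transduced at MOI <0.1 into HEK293 cells stably expressing alpha-, gamma- and delta-sarcoglycan. YFP-positive cells were sorted after 72 hours, grown 5–7 days, stained on ice with Alexa Fluor 647 anti-HA, fixed, sorted into four 5% intensity bins and amplicon-sequenced. The functional score is the log ratio of highest-bin to lowest-bin variant frequency, taken as the median over codons and duplicate transductions. Synonymous variants were scaled per section to mean 0, SD 0.5.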
Regarding MAAAAAAAAEQQSSNGPVKKSMREKAVERRSVNKEHNSNFKAGYIPIDEDRLHKTGLRGRKGNLAICVIILLFILAVINLIITLVIWIVIRIGPNGCDSMEFHESGLLRFKQVSDMGVIHPLYKSTVGGRRNENLVITGNNQPIVFQQGTTKLSVENNKTSITSDIGMQFFDPRTQNILFSTDYETHEFHLPSGVKSLNVQKASTERITSNATSDLNIKVDGRAIVRGNEGVFIMGKTIEFHMGGNMELKAENSIILNGSVMVSTTRLPSSSSGDQLGSGDWVRYKLCMCADGTLFKVQVTSQNMGCQISDNPCGNTH [A88I], the “SGCB cell-surface expression functional score (log10)” value is 0.06.
As for MAAAAAAAAEQQSSNGPVKKSMREKAVERRSVNKEHNSNFKAGYIPIDEDRLHKTGLRGRKGNLAICVIILLFILAVINLIITLVIWRVIRIGPNGCDSMEFHESGLLRFKQVSDMGVIHPLYKSTVGGRRNENLVITGNNQPIVFQQGTTKLSVENNKTSITSDIGMQFFDPRTQNILFSTDYETHEFHLPSGVKSLNVQKASTERITSNATSDLNIKVDGRAIVRGNEGVFIMGKTIEFHMGGNMELKAENSIILNGSVMVSTTRLPSSSSGDQLGSGDWVRYKLCMCADGTLFKVQVTSQNMGCQISDNPCGNTH [A88R], the “SGCB cell-surface expression functional score (log10)” value was -0.43.
For MAAAAAAAAEQQSSNGPVKKSMREKAVERRSVNKEHNSNFKAGYIPIDEDRLHKTGLRGRKGNLAICVIILLFILAVINLIITLVIWEVIRIGPNGCDSMEFHESGLLRFKQVSDMGVIHPLYKSTVGGRRNENLVITGNNQPIVFQQGTTKLSVENNKTSITSDIGMQFFDPRTQNILFSTDYETHEFHLPSGVKSLNVQKASTERITSNATSDLNIKVDGRAIVRGNEGVFIMGKTIEFHMGGNMELKAENSIILNGSVMVSTTRLPSSSSGDQLGSGDWVRYKLCMCADGTLFKVQVTSQNMGCQISDNPCGNTH [A88E] the value was -0.1; for MAAAAAAAAEQQSSNGPVKKSMREKAVERRSVNKEHNSNFKAGYIPIDEDRLHKTGLRGRKGNLAICVIILLFILAVINLIITLVIWGVIRIGPNGCDSMEFHESGLLRFKQVSDMGVIHPLYKSTVGGRRNENLVITGNNQPIVFQQGTTKLSVENNKTSITSDIGMQFFDPRTQNILFSTDYETHEFHLPSGVKSLNVQKASTERITSNATSDLNIKVDGRAIVRGNEGVFIMGKTIEFHMGGNMELKAENSIILNGSVMVSTTRLPSSSSGDQLGSGDWVRYKLCMCADGTLFKVQVTSQNMGCQISDNPCGNTH [A88G], 0.19; for MAAAAAAAAEQQSSNGPVKKSMREKAVERRSVNKEHNSNFKAGYIPIDEDRLHKTGLRGRKGNLAICVIILLFILAVINLIITLVIWLVIRIGPNGCDSMEFHESGLLRFKQVSDMGVIHPLYKSTVGGRRNENLVITGNNQPIVFQQGTTKLSVENNKTSITSDIGMQFFDPRTQNILFSTDYETHEFHLPSGVKSLNVQKASTERITSNATSDLNIKVDGRAIVRGNEGVFIMGKTIEFHMGGNMELKAENSIILNGSVMVSTTRLPSSSSGDQLGSGDWVRYKLCMCADGTLFKVQVTSQNMGCQISDNPCGNTH [A88L], 0.14.
For MAAAAAAAAEQQSSNGPVKKSMREKAVERRSVNKEHNSNFKAGYIPIDEDRLHKTGLRGRKGNLAICVIILLFILAVINLIITLVIWMVIRIGPNGCDSMEFHESGLLRFKQVSDMGVIHPLYKSTVGGRRNENLVITGNNQPIVFQQGTTKLSVENNKTSITSDIGMQFFDPRTQNILFSTDYETHEFHLPSGVKSLNVQKASTERITSNATSDLNIKVDGRAIVRGNEGVFIMGKTIEFHMGGNMELKAENSIILNGSVMVSTTRLPSSSSGDQLGSGDWVRYKLCMCADGTLFKVQVTSQNMGCQISDNPCGNTH [A88M] the value was -0.05.
For MAAAAAAAAEQQSSNGPVKKSMREKAVERRSVNKEHNSNFKAGYIPIDEDRLHKTGLRGRKGNLAICVIILLFILAVINLIITLVIWNVIRIGPNGCDSMEFHESGLLRFKQVSDMGVIHPLYKSTVGGRRNENLVITGNNQPIVFQQGTTKLSVENNKTSITSDIGMQFFDPRTQNILFSTDYETHEFHLPSGVKSLNVQKASTERITSNATSDLNIKVDGRAIVRGNEGVFIMGKTIEFHMGGNMELKAENSIILNGSVMVSTTRLPSSSSGDQLGSGDWVRYKLCMCADGTLFKVQVTSQNMGCQISDNPCGNTH [A88N] the value was -0.37; for MAAAAAAAAEQQSSNGPVKKSMREKAVERRSVNKEHNSNFKAGYIPIDEDRLHKTGLRGRKGNLAICVIILLFILAVINLIITLVIWCVIRIGPNGCDSMEFHESGLLRFKQVSDMGVIHPLYKSTVGGRRNENLVITGNNQPIVFQQGTTKLSVENNKTSITSDIGMQFFDPRTQNILFSTDYETHEFHLPSGVKSLNVQKASTERITSNATSDLNIKVDGRAIVRGNEGVFIMGKTIEFHMGGNMELKAENSIILNGSVMVSTTRLPSSSSGDQLGSGDWVRYKLCMCADGTLFKVQVTSQNMGCQISDNPCGNTH [A88C], -0.27.
With MAAAAAAAAEQQSSNGPVKKSMREKAVERRSVNKEHNSNFKAGYIPIDEDRLHKTGLRGRKGNLAICVIILLFILAVINLIITLVIWKVIRIGPNGCDSMEFHESGLLRFKQVSDMGVIHPLYKSTVGGRRNENLVITGNNQPIVFQQGTTKLSVENNKTSITSDIGMQFFDPRTQNILFSTDYETHEFHLPSGVKSLNVQKASTERITSNATSDLNIKVDGRAIVRGNEGVFIMGKTIEFHMGGNMELKAENSIILNGSVMVSTTRLPSSSSGDQLGSGDWVRYKLCMCADGTLFKVQVTSQNMGCQISDNPCGNTH [A88K], the “SGCB cell-surface expression functional score (log10)” value stood at 0.62.
For MAAAAAAAAEQQSSNGPVKKSMREKAVERRSVNKEHNSNFKAGYIPIDEDRLHKTGLRGRKGNLAICVIILLFILAVINLIITLVIWHVIRIGPNGCDSMEFHESGLLRFKQVSDMGVIHPLYKSTVGGRRNENLVITGNNQPIVFQQGTTKLSVENNKTSITSDIGMQFFDPRTQNILFSTDYETHEFHLPSGVKSLNVQKASTERITSNATSDLNIKVDGRAIVRGNEGVFIMGKTIEFHMGGNMELKAENSIILNGSVMVSTTRLPSSSSGDQLGSGDWVRYKLCMCADGTLFKVQVTSQNMGCQISDNPCGNTH [A88H] the value was 0.49; for MAAAAAAAAEQQSSNGPVKKSMREKAVERRSVNKEHNSNFKAGYIPIDEDRLHKTGLRGRKGNLAICVIILLFILAVINLIITLVIWQVIRIGPNGCDSMEFHESGLLRFKQVSDMGVIHPLYKSTVGGRRNENLVITGNNQPIVFQQGTTKLSVENNKTSITSDIGMQFFDPRTQNILFSTDYETHEFHLPSGVKSLNVQKASTERITSNATSDLNIKVDGRAIVRGNEGVFIMGKTIEFHMGGNMELKAENSIILNGSVMVSTTRLPSSSSGDQLGSGDWVRYKLCMCADGTLFKVQVTSQNMGCQISDNPCGNTH [A88Q], 0.15.
For MAAAAAAAAEQQSSNGPVKKSMREKAVERRSVNKEHNSNFKAGYIPIDEDRLHKTGLRGRKGNLAICVIILLFILAVINLIITLVIWPVIRIGPNGCDSMEFHESGLLRFKQVSDMGVIHPLYKSTVGGRRNENLVITGNNQPIVFQQGTTKLSVENNKTSITSDIGMQFFDPRTQNILFSTDYETHEFHLPSGVKSLNVQKASTERITSNATSDLNIKVDGRAIVRGNEGVFIMGKTIEFHMGGNMELKAENSIILNGSVMVSTTRLPSSSSGDQLGSGDWVRYKLCMCADGTLFKVQVTSQNMGCQISDNPCGNTH [A88P] the value was -1.07; for MAAAAAAAAEQQSSNGPVKKSMREKAVERRSVNKEHNSNFKAGYIPIDEDRLHKTGLRGRKGNLAICVIILLFILAVINLIITLVIWFVIRIGPNGCDSMEFHESGLLRFKQVSDMGVIHPLYKSTVGGRRNENLVITGNNQPIVFQQGTTKLSVENNKTSITSDIGMQFFDPRTQNILFSTDYETHEFHLPSGVKSLNVQKASTERITSNATSDLNIKVDGRAIVRGNEGVFIMGKTIEFHMGGNMELKAENSIILNGSVMVSTTRLPSSSSGDQLGSGDWVRYKLCMCADGTLFKVQVTSQNMGCQISDNPCGNTH [A88F], 0.14.
For MAAAAAAAAEQQSSNGPVKKSMREKAVERRSVNKEHNSNFKAGYIPIDEDRLHKTGLRGRKGNLAICVIILLFILAVINLIITLVIWSVIRIGPNGCDSMEFHESGLLRFKQVSDMGVIHPLYKSTVGGRRNENLVITGNNQPIVFQQGTTKLSVENNKTSITSDIGMQFFDPRTQNILFSTDYETHEFHLPSGVKSLNVQKASTERITSNATSDLNIKVDGRAIVRGNEGVFIMGKTIEFHMGGNMELKAENSIILNGSVMVSTTRLPSSSSGDQLGSGDWVRYKLCMCADGTLFKVQVTSQNMGCQISDNPCGNTH [A88S] the value was 0.49.
Take MAAAAAAAAEQQSSNGPVKKSMREKAVERRSVNKEHNSNFKAGYIPIDEDRLHKTGLRGRKGNLAICVIILLFILAVINLIITLVIWDVIRIGPNGCDSMEFHESGLLRFKQVSDMGVIHPLYKSTVGGRRNENLVITGNNQPIVFQQGTTKLSVENNKTSITSDIGMQFFDPRTQNILFSTDYETHEFHLPSGVKSLNVQKASTERITSNATSDLNIKVDGRAIVRGNEGVFIMGKTIEFHMGGNMELKAENSIILNGSVMVSTTRLPSSSSGDQLGSGDWVRYKLCMCADGTLFKVQVTSQNMGCQISDNPCGNTH [A88D]: the “SGCB cell-surface expression functional score (log10)” value amounted to 0.41.
MAAAAAAAAEQQSSNGPVKKSMREKAVERRSVNKEHNSNFKAGYIPIDEDRLHKTGLRGRKGNLAICVIILLFILAVINLIITLVISAVIRIGPNGCDSMEFHESGLLRFKQVSDMGVIHPLYKSTVGGRRNENLVITGNNQPIVFQQGTTKLSVENNKTSITSDIGMQFFDPRTQNILFSTDYETHEFHLPSGVKSLNVQKASTERITSNATSDLNIKVDGRAIVRGNEGVFIMGKTIEFHMGGNMELKAENSIILNGSVMVSTTRLPSSSSGDQLGSGDWVRYKLCMCADGTLFKVQVTSQNMGCQISDNPCGNTH [W87S]: the “SGCB cell-surface expression functional score (log10)” value came to 0.18.
With MAAAAAAAAEQQSSNGPVKKSMREKAVERRSVNKEHNSNFKAGYIPIDEDRLHKTGLRGRKGNLAICVIILLFILAVINLIITLVITAVIRIGPNGCDSMEFHESGLLRFKQVSDMGVIHPLYKSTVGGRRNENLVITGNNQPIVFQQGTTKLSVENNKTSITSDIGMQFFDPRTQNILFSTDYETHEFHLPSGVKSLNVQKASTERITSNATSDLNIKVDGRAIVRGNEGVFIMGKTIEFHMGGNMELKAENSIILNGSVMVSTTRLPSSSSGDQLGSGDWVRYKLCMCADGTLFKVQVTSQNMGCQISDNPCGNTH [W87T], the “SGCB cell-surface expression functional score (log10)” value is -0.05.
For MAAAAAAAAEQQSSNGPVKKSMREKAVERRSVNKEHNSNFKAGYIPIDEDRLHKTGLRGRKGNLAICVIILLFILAVINLIITLVIYAVIRIGPNGCDSMEFHESGLLRFKQVSDMGVIHPLYKSTVGGRRNENLVITGNNQPIVFQQGTTKLSVENNKTSITSDIGMQFFDPRTQNILFSTDYETHEFHLPSGVKSLNVQKASTERITSNATSDLNIKVDGRAIVRGNEGVFIMGKTIEFHMGGNMELKAENSIILNGSVMVSTTRLPSSSSGDQLGSGDWVRYKLCMCADGTLFKVQVTSQNMGCQISDNPCGNTH [W87Y] the value was 0; for MAAAAAAAAEQQSSNGPVKKSMREKAVERRSVNKEHNSNFKAGYIPIDEDRLHKTGLRGRKGNLAICVIILLFILAVINLIITLVIVAVIRIGPNGCDSMEFHESGLLRFKQVSDMGVIHPLYKSTVGGRRNENLVITGNNQPIVFQQGTTKLSVENNKTSITSDIGMQFFDPRTQNILFSTDYETHEFHLPSGVKSLNVQKASTERITSNATSDLNIKVDGRAIVRGNEGVFIMGKTIEFHMGGNMELKAENSIILNGSVMVSTTRLPSSSSGDQLGSGDWVRYKLCMCADGTLFKVQVTSQNMGCQISDNPCGNTH [W87V], -0.45.
